These molecules were tested against human growth hormone secretagogue receptor (human) (UniProt Q92847) (assay: (125I)ghrelin displacement, hGHS-R CHO-K1 membranes).
Sequence of human growth hormone secretagogue receptor (human) (Q92847 whole entry): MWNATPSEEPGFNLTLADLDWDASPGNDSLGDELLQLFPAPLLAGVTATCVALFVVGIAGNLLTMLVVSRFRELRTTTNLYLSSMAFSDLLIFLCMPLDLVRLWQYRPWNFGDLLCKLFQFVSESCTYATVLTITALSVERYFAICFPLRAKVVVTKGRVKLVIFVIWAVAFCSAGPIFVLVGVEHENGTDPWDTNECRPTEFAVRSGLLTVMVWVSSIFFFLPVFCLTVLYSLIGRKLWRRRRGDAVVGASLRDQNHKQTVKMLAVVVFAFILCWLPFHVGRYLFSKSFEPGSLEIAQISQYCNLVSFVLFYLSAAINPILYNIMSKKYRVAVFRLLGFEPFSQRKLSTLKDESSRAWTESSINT

Row | Molecule | Ki
1 | H-Apc-D-1-Nal-D-Trp-Phe-NH2 (peptide) | 0.7 nM
2 | H-Apc-D-1-Nal-D-Trp-Taz-NH2 (peptide) | 1.41 nM
3 | H-Apc-D-Bal-D-2-Nal-Phe-Lys-NH2 (peptide) | 0.68 nM
4 | H-Apc-D-Bal-D-Trp-2-Thi-Apc-NH2 (peptide) | 0.51 nM
5 | H-Apc-D-Bal-D-Trp-Phe-Apc-NH2 (peptide) | 0.71 nM
6 | H-Apc-D-Bal-D-Trp-Taz-Lys-NH2 (peptide) | 0.5 nM
7 | H-Inp-D-2-Nal-D-Trp(Ψ)-Pim (peptide) | 117 nM
8 | H-Inp-D-2-Nal-D-Trp-Taz-Lys-NH2 (peptide) | 0.8 nM
9 | H-Inp-D-Bal-D-Trp-2-Thi-Apc-NH2 (peptide) | 0.4 nM
10 | H-Inp-D-Bal-D-Trp-Phe-Lys-NH2 (peptide) | 0.33 nM
11 | H-Inp-D-Bal-D-Trp-Taz-Apc-NH2 (peptide) | 0.83 nM
12 | H-Inp-D-Bal-D-Trp-Taz-Lys-NH2 (peptide) | 0.52 nM
13 | H-Inp-D-Bip-D-Trp-Phe-NH2 (peptide) | 20 nM
14 | Inp-D-2-Nal-D-Trp-Phe-Lys-NH2 (peptide) | 0.3 nM

Each molecule was assayed against T1, human growth hormone secretagogue receptor (human, UniProt Q92847 1-366) in the same assay as above.
T1 construct: whole, on cells; also called hGHS-R; ghrelin receptor
T1 sequence (Q92847 whole entry): as above
Protocol: Membranes for radioligand binding studies can be and were prepared by homogenization of the foregoing CHO-KL cells expressing the human recombinant GHS receptor. The cells were homogenized in 20 ml of ice-cold 50 mM Tris-HCl using a Brinkman Polytron® (Westbury, N.Y.; setting 6, 15 sec). The homogenates were washed twice by centrifugation (39,000 g/10 min) and the final pellets were resuspended in 50 mM Tris-HCl containing 2.5 mM MgCh and 0.1% bovine serum albumin (BSA). […] The filters were then washed three times with 5-ml aliquots of ice-cold 50 mM Tris-HCl and 0.1% BSA, and the bound radioactivity trapped on the filters was counted by gamma spectrometry (Wallac LKB, Gaithersburg, Md.).

Row | Molecule | Ki
15 | GSXFLSPEHQRVQQRKESKKPPAKLQPR (Glu(O-hexyl) 3; C-terminal amide) [(Glu^3(O-hexyl))hGhrelin(1-28)-NH2] | 0.5 nM
